Here are results for 62 variants from the supplement of paper PMC10567573.

The labels stand for the following.
B1: KCNAB2 (parent)
chain: SSIIHEIDSILGNKPYSKKDYRS
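Also: lentivirally expressed fusions sorted by FACS into six bins by GFP to DsRed ratio, PSI derived from sequencing read proportions per bin multiplied by bin number.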

The variants in this data set derive from B1. The data set can be described thus: protein stability index of a GFP-peptide fusion (GPS, HEK-293T) (PSI 1-6); higher = more stable. As to conditions: c terminus: native.
On to SSIIHEIDSILGNKPYSKKDVRS, for which the protein stability index came to 3.27.
In the case of SSIIHEIDSILGNKPYSKKDMRS, the protein stability index turned out to be 2.17.
On to SSIIHEIDSILGNKPYSKKDCRS, for which the protein stability index came out at 3.13.
Then SSIIHEIDSILGNKPYSKKDSRS, with 1.08.
Then SSIIHEIDSILGNKPYSKKDERS, with 3.37; and SSIIHEIDSILGNKPYSKKDFRS, with 2.52; and SSIIHEIDSILGNKPYSKKDKRS, with 3.66.
Then SSIIHEIDSILGNKPYSKKDPRS, with 5.12.
For SSIIHEIDSILGNKPYSKKDARS, the protein stability index is 3.77.
Then SSIIHEIDSILGNKPYSKKDHRS, with 3.15.
To SSIIHEIDSILGNKPYSKKDGRS belongs 3.37; to SSIIHEIDSILGNKPYSKKDNRS, 3.64.
Then SSIIHEIDSILGNKPYSKKDQRS, with 2.2; and SSIIHEIDSILGNKPYSKKDDRS, with 4.07; and SSIIHEIDSILGNKPYSKKDWRS, with 3.28.
Consider SSIIHEIDSILGNKPYSKKDTRS, for which the protein stability index is 2.35.
Then SSIIHEIDSILGNKPYSKKDRRS, with 1.77.
Then SSIIHEIDSILGNKPYSKKDIRS, with 2.47.
Then SSIIHEIDSILGNKPYSKKDLRS, with 2.37; and SSIIHEIDSILGNKPYSKKDYRN, with 4.49.
As for SSIIHEIDSILGNKPYSKKDYRD, the protein stability index was determined as 4.12.
To SSIIHEIDSILGNKPYSKKDYRF belongs 4.46; to SSIIHEIDSILGNKPYSKKDYRQ, 3.6; to SSIIHEIDSILGNKPYSKKDYRE, 4.19.
Regarding SSIIHEIDSILGNKPYSKKDYRM, the protein stability index turned out to be 3.96.
Then SSIIHEIDSILGNKPYSKKDYRP, with 3.8; and SSIIHEIDSILGNKPYSKKDYRK, with 4.33; and SSIIHEIDSILGNKPYSKKDYRV, with 3.68.
Then SSIIHEIDSILGNKPYSKKDYRY, with 3.02.
Then SSIIHEIDSILGNKPYSKKDYRH, with 4.09; and SSIIHEIDSILGNKPYSKKDYRG, with 2.56; and SSIIHEIDSILGNKPYSKKDYRT, with 4.17.
SSIIHEIDSILGNKPYSKKDYRC: the protein stability index came out at 3.67.
For the variant SSIIHEIDSILGNKPYSKKDYRW, the protein stability index was 2.72.
To SSIIHEIDSILGNKPYSKKDYRL belongs 3.9; to SSIIHEIDSILGNKPYSKKDYRA, 3.37; to SSIIHEIDSILGNKPYSKKDYRR, 2.18.
SSIIHEIDSILGNKPYSKKDYRI: the protein stability index came out at 3.74.
Then SSIIHEIDSILGNKPYSKKWYRS, with 1.92; and SSIIHEIDSILGNKPYSKKQYRS, with 2.04.
Then SSIIHEIDSILGNKPYSKKTYRS, with 3.55; and SSIIHEIDSILGNKPYSKKYYRS, with 2.07; and SSIIHEIDSILGNKPYSKKVYRS, with 2.03.
To SSIIHEIDSILGNKPYSKKSYRS belongs 2.78; to SSIIHEIDSILGNKPYSKKDYMS, 3.29; to SSIIHEIDSILGNKPYSKKDYAS, 4.01.
Take SSIIHEIDSILGNKPYSKKDYCS: the protein stability index worked out at 3.26.
To SSIIHEIDSILGNKPYSKKDYYS belongs 3.24.
On to SSIIHEIDSILGNKPYSKKDYPS, for which the protein stability index is 4.29.
Then SSIIHEIDSILGNKPYSKKDYSS, with 4.01; and SSIIHEIDSILGNKPYSKKDYNS, with 4.55; and SSIIHEIDSILGNKPYSKKDYFS, with 3.18.
In the case of SSIIHEIDSILGNKPYSKKDYLS, the protein stability index is 4.01.
Then SSIIHEIDSILGNKPYSKKDYHS, with 4.39; and SSIIHEIDSILGNKPYSKKDYQS, with 4.29; and SSIIHEIDSILGNKPYSKKDYWS, with 2.57.
Then SSIIHEIDSILGNKPYSKKDYVS, with 3.12.
To SSIIHEIDSILGNKPYSKKDYTS belongs 4.28.
With SSIIHEIDSILGNKPYSKKDYGS, the protein stability index was 3.98.
Then SSIIHEIDSILGNKPYSKKDYDS, with 4.42; and SSIIHEIDSILGNKPYSKKDYIS, with 3.67; and SSIIHEIDSILGNKPYSKKDYKS, with 4.37.
